Test results published in patent publication US20200308303A1.

Tests used:
[1] = target: human ADAMTS13 (A Disintegrin And Metalloproteinase with a ThromboSpondin type 1 motif, member 13) (human) (UniProt Q76LX8); experiment: cell-based or functional assay
[2] = target: human ADAMTS13 (A Disintegrin And Metalloproteinase with a ThromboSpondin type 1 motif, member 13) (human) (UniProt Q76LX8); experiment: sandwich ELISA: dilution series of coated antibody (10 to 0.02 µg/mL), constant 15% normal human plasma; half maximal binding by nonlinear regression

Chain of human ADAMTS13 (A Disintegrin And Metalloproteinase with a ThromboSpondin type 1 motif, member 13) (human) (Q76LX8 75-1427): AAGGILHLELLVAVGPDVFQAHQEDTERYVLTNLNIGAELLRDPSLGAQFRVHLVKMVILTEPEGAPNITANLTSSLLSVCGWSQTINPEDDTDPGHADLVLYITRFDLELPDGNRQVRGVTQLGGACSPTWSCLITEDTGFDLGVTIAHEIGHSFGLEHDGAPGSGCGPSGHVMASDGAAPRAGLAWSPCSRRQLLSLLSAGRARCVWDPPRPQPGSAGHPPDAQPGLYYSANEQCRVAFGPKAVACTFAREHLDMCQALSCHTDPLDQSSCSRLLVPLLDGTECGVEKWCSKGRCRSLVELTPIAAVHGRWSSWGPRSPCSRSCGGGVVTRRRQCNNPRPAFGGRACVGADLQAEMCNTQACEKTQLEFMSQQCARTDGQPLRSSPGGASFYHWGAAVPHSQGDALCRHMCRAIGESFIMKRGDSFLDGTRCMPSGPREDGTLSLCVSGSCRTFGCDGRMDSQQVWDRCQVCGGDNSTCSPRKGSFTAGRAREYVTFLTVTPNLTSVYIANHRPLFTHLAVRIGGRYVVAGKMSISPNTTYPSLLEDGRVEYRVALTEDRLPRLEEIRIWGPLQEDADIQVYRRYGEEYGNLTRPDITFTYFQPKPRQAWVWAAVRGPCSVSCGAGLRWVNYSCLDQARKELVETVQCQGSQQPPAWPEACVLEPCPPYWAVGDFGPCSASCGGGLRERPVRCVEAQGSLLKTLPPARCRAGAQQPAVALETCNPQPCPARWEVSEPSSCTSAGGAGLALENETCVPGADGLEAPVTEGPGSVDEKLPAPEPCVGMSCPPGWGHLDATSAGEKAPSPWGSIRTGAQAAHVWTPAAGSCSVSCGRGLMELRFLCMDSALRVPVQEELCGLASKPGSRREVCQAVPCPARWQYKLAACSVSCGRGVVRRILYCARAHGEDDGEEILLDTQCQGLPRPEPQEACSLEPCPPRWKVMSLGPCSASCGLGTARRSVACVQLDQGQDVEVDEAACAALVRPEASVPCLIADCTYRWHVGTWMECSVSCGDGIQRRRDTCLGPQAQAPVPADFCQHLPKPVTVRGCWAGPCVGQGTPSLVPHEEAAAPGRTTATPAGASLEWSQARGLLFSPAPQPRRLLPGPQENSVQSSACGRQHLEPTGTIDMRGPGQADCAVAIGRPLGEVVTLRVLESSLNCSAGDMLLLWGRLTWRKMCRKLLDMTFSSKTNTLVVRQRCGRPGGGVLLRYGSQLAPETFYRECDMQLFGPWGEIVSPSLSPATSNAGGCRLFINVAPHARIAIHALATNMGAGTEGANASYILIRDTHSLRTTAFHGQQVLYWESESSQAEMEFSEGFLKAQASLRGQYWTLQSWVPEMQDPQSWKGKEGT

B1: monoclonal anti-ADAMTS13 antibody 17C7 (antibody, V domains shown)
VH: EVQLVESGGDLVKSGGSLKLSCAASGFIFSNYAMSWVRQTPEKRLEWGATITTGGFYTFYSDSVKGRFTISRDNAKNTLYLQMSSLRSEDTAMYYCARHRYDDYYALDYWGQGTSVTVSS
VL: ENVLTQSPAIMSTSPGEKVTMTCNVSSSVSYMRWFQQKSSTSPKLWIYDTSKLASGVPGRFSGSGSGHSYSLTISSMEADDVATYYCFQGNGYPLTFGAGTKLELK
modifications: Biotinylated when used as detector; the site is not stated and the letters cannot carry it.
**Q.** Which results are given for B1?
**A.** half maximal inhibitory concentration (IC50) of ADAMTS13 activity in normal human plasma, FRETS-VWF73 assay [1]: 0.47 µg/mL; half-maximal binding concentration (EC50) of coated antibody [2]: 0.51 µg/mL
